# Experimental data published in PMC4263517.
# Target: Hfq (Pseudomonas aeruginosa (PAO1?)) (UniProt Q9HUM0)
# Assay: EMSA
# Details: biotinylated UTP 1:3 to unlabeled UTP; 50 mM Tris-HCl pH 7.5, 250 mM NaCl, 250 mM KCl (Hfq annealing buffer); RNA renatured 80 C 1 min; room temperature 20 min; 7.5% TGX native gel
# Hfq (Pseudomonas aeruginosa (PAO1?)), sequence (Q9HUM0 whole entry): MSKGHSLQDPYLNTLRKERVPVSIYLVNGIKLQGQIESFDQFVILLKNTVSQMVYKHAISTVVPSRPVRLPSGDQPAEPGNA
sequence,measurement,value
AACUGGUCGCGAGAUCAGCCGGUAAGCUGAGAGACCCACGCAGUCGGACUCUUCAGAUUAUCUCCUCAUCAGGCUAAUCACGGUUUUUGACCCGGCACUUUGCCGGGUCUUUUUUUGCCUGCGAUUCGGCCGGAGACGACCGUUCAUCGGCUGGCGAUGGAAUGAAUGAGAACCGGCUUGACCUGAUAAUGAGAAUAGUUAUUAUUACACCAACUGGUCGCGAGGCCAGCAGGUAAGCUGAGAGACCAAGCAGUCGGACUCUUCAGAUUAUCUCCUCAUCAGGCUAAUCACGGUUUCGACCCGGCACUUUGCCGGGUCUUUUUUU [PrrH sRNA],binding,11 ng/µL
